Test results: patent publication US10077295B2, “Glycoproteins having lipid mobilizing properties and therapeutic uses thereof” (Aston University, priority 2010, dated 2018)

What was measured:
ob/ob mice [1] = experiment: Body weight loss by route of administration of ZAG in ob/ob mice; type: in vivo, mouse; details: intraveneous, 50 ug/day
ob/ob mice [2] = experiment: Insulin tolerance test in ob/ob mice administered ZAG for 3 days; type: in vivo, mouse
Description: An insulin tolerance test was also carried out in ob/ob mice administered ZAG for 3 days (FIG. 23). Animals were administered two doses of insulin (10 and 20 U/kg) by i.p. injection and blood glucose was measured over the next 60 min. […] The glucose disappearance curve for 20 U/kg+PBS was almost identical to 10 U/kg+ZAG, so at this dose level ZAG is reducing the requirement for insulin by 50%, but this can be overcome by giving more insulin.

[3] = tested on: adipocytes and gastrocnemius muscle of ob/ob mice; experiment: Glucose uptake into adipocytes and gastrocnemius muscle of ZAG-treated ob/ob mice; type: in vivo, mouse
Description: (§1) Glucose Uptake into Adipocytyes. Isolated adipocytes (5×10^4) were washed twice in 1 ml Krebs-Ringer bicarbonate buffer, pH 7.2 (KRBS) and further incubated for 10 min at room temperature in 0.5 ml KRBS containing 18.5 MBq 2-[1-^14C] deoxy-D-glucose and non-radioactive 2-deoxy-D-glucose to a final concentration of 0.1 mM. Uptake was terminated by the addition of 1 ml ice-cold glucose-free KRBS, and the cells were washed three times with 1 ml KRBS, lysed by addition of 0.5 ml 1M NaOH and left for at least 1 h at room temperature before the radioactivity was determined by liquid scintillation counting.
Glucose Uptake into Gastrocnemius Muscle—Gastrocnemius muscles were incubated in Krebs-Henseleit bicarbonate buffer for 45 min at 37° C. and then incubated for a further 10 min in 5 ml Krebs-Henseleit buffer containing 185M Bq 2-[1-^14C] deoxy-D-glucose and non-radioactive 2-deoxy-D-glucose to a final concentration of 0.1 mM. The muscles were then removed and washed in 0.9% NaCl for 5 min followed by dissolution in 0.5 ml 1M NaOH and the radioactivity was determined by liquid scintillation counting.

ob/ob mice [4] = experiment: Interval / long-term administration of ZAG in ob/ob mice (pilot study); type: in vivo, mouse
Description: While not wanting to be limited by theory, it may be that the subjects are receiving too much ZAG or that there is receptor desensitization as is seen with TNF. A pilot study was performed with 2 mice in each group to determine optimal scheduling of ZAG delivery.

[5] = tested on: epididymal adipocytes of male Wistar rats; experiment: Uptake of 2-deoxy-D-glucose into epididymal adipocytes of ZAG-treated rats; type: in vivo, rat; details: rats treated for 10 days
Description: as §1

B1: ZAG: recombinant full length human zinc-α2-glycoprotein (SEQ ID NO: 1) secreted by transfected HEK293F cells; lipid mobilizing factor (protein, listed as Homo sapiens)
chain: QENQDGRYSLTYIYTGLSKHVEDVPAFQALGSLNDLQFFRYNSKDRKSQPMGLWRQVEGMEDWKEDSQLQKAREDMETLKDIVEYYNDSNGSHVLQGRFGCEIENNRSSGAFWKYYYDGKDYIEFNKEIPAWVPFDPAAQITKQKWEAEPVYVQRAKAYLEEECPATLRKYLKYSKNILDRQDPPSVVVTSHQAPGEKKKLKCLAYDFYPGKIDVHWTRAGQVQEPELRGDVLHNGNGTYQSWVVVAVPPQDTAPYSCHVQHSSLAQPLVVPWEAS
% of i.v. loss over the same time (ob/ob mice [1]; 8 Days): 100%
% of i.v. loss over the same time (ob/ob mice [1]; 20 Days): 100%
Body weight loss (ob/ob mice [1]; 70 g ob/ob mice, 8 Days): −6.0%
reduction of the requirement for insulin (ob/ob mice [2]; 10 U/kg insulin+ZAG vs 20 U/kg+PBS): 50%
sensitivity to insulin (ob/ob mice [2]; insulin 10 U/kg i.p.): increased sensitivity to insulin
glucose uptake into gastrocnemius muscle ([3]; absence and presence of insulin (100 nM)): significantly enhanced
glucose uptake into epididymal, visceral and subcutaneous adipocytes ([3]; absence of insulin, ob/ob mice treated 5 days): increased glucose uptake
weight loss (ob/ob mice [4]; from a 90 g mouse, in about 3 weeks): 8 to 10 g
outcome of long-term daily administration (ob/ob mice [4]; ob/ob mice): cessation of weight loss
uptake of 2-deoxyglucose into epididymal adipocytes [5]: significant increase
